From the supplement of paper PMC7877785
± gives the uncertainty stated by the source.

Assay: self-splicing fitness, log relative to wild type (ln ratio); higher = more splicing; Tetrahymena group I intron in knt gene, E. coli kanamycin selection, DiMSum; sequences stand for … in CUCUCU…GGAGGGAAAAGUUAUCAGGCAUGCACCUGGUAGCUAGUCUUUAAACCAAUAGAUUGCAUCGGUUUAAAAGGCAAGACCGUCAAAUUGCGGGAAAGGGGUCAACAGCCGUUCAGUACCAAGUCUCAGGGGAAACUUUGAGAUGGCCUUGCAAAGGGUAUGGUAAUAAGCUGACGGACAUGGUCCUAACCACGCAGCCAAGUCCUAAGUCAACAGAUCUUCUGUUGAUAUGGAUGCAGUUCACAGACUAAAUGUCGGUCGGGGAAGAUGUAUUCUUCUCAUAAGAUAUAGUCGGACCUCUCCUUAAUGGGAGCUAGCGGAUGAAGUGAUGCAACACUGGAGCCGCUGGGAACUAAUUUGUAUGCGAAAGUAUAUUGAUUAGUUUUGGAGUACUCGUGGUCG
How it was run: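 Fitness was computed with DiMSum as the error-weighted combination of replicate fold changes, kanamycin versus none, each normalised to wild type. The library randomised all eight intron nucleotides of the P1ex region, with the intron placed in the knt kanamycin-resistance gene on pET-22b(+) in E. coli BL21(DE3). Six replicate transformations were grown overnight at 37°C or 30°C on LB agar with or without 25 μg/mL kanamycin, plus 100 μg/mL carbenicillin, 50 μM IPTG and 0.2% rhamnose. Pooled colonies were amplicon-sequenced on an Illumina HiSeq 2500.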

| Sequence | self-splicing fitness (ln) (30 °C) | self-splicing fitness (ln) (37 °C) |
| --- | --- | --- |
| GCUUAGCAAUAUUACGCCGA | -2.42 ± 0.23 | -1.87 ± 0.27 |
| GCUUAGCAAUAUUACGCGCC | -1.62 ± 0.45 |  |
| GCUUAGCAAUAUUACGCUGC | -3.09 ± 0.35 | -2.38 ± 0.42 |
| GCUUAGCAAUAUUACGGCGC | -0.263 ± 0.14 | 0.127 ± 0.16 |
| GCUUAGCAAUAUUACGGUCA | -1.04 ± 0.13 | -0.448 ± 0.14 |
| GCUUAGCAAUAUUACGGUGC | -1.98 ± 0.12 | -0.681 ± 0.15 |
| GCUUAGCAAUAUUACGGUGU | -0.596 ± 0.052 | -0.0556 ± 0.068 |
| GCUUAGCAAUAUUACGUCGA | -1.67 ± 0.088 | -0.777 ± 0.11 |
| GCUUAGCAAUAUUACGUCUA | -1.96 ± 0.26 | -0.873 ± 0.2 |
| GCUUAGCAAUAUUACGUGGC | -3.12 ± 0.22 | -1.44 ± 0.4 |
| GGAAAGCAAUAUUACGAAAA | -1.04 ± 0.48 |  |
| GGAAAGCAAUAUUACGAAGC | -1.07 ± 0.34 | -1.43 ± 0.34 |
| GGAAAGCAAUAUUACGACCA | -0.87 ± 0.11 | -0.318 ± 0.14 |
| GGAAAGCAAUAUUACGACGU | -0.135 ± 0.097 | 0.068 ± 0.1 |
| GGAAAGCAAUAUUACGAGCG | -0.482 ± 0.12 | 0.397 ± 0.12 |
| GGAAAGCAAUAUUACGAUUA | -0.527 ± 0.16 | 0.788 ± 0.16 |
| GGAAAGCAAUAUUACGCCGA | -0.608 ± 0.34 | -0.354 ± 0.24 |
| GGAAAGCAAUAUUACGCGAA | -1.66 ± 0.17 | -1.19 ± 0.13 |
| GGAAAGCAAUAUUACGCGGC | -2.98 ± 0.41 | -2.03 ± 0.45 |
| GGAAAGCAAUAUUACGCUGA | -2.94 ± 0.22 | -1.9 ± 0.16 |
| GGAAAGCAAUAUUACGCUGG | -2.2 ± 0.14 | -2.81 ± 0.26 |
| GGAAAGCAAUAUUACGCUUG | -2.12 ± 0.14 | -1.15 ± 0.21 |
| GGAAAGCAAUAUUACGGAUC | -0.0161 ± 0.075 | 0.0803 ± 0.09 |
| GGAAAGCAAUAUUACGGCCG | -0.751 ± 0.12 | -0.566 ± 0.16 |
| GGAAAGCAAUAUUACGGGAG | -3.54 ± 0.28 | -1.83 ± 0.19 |

| Sequence | self-splicing fitness (ln) (30 °C) | self-splicing fitness (ln) (37 °C) |
| --- | --- | --- |
| GGAAAGCAAUAUUACGGGCA | -1.2 ± 0.14 | -1.15 ± 0.18 |
| GGAAAGCAAUAUUACGGGUC | -3.66 ± 0.24 | -1.92 ± 0.14 |
| GGAAAGCAAUAUUACGGUAG | -3.02 ± 0.2 | -2.98 ± 0.18 |
| GGAAAGCAAUAUUACGGUCC | -2.06 ± 0.25 |  |
| GGAAAGCAAUAUUACGUACA | -0.523 ± 0.14 | 6.9e-05 ± 0.15 |
| GGAAAGCAAUAUUACGUCAC | -2.13 ± 0.22 | -1.81 ± 0.32 |
| GGAAAGCAAUAUUACGUCGA | -1.84 ± 0.092 | -0.528 ± 0.12 |
| GGAAAGCAAUAUUACGUGAC | -2.97 ± 0.19 | -1.94 ± 0.24 |
| GGAAAGCAAUAUUACGUUAG | -3.14 ± 0.16 | -1.9 ± 0.15 |
| GGACAGCAAUAUUACGAAGC | -0.729 ± 0.079 | 0.158 ± 0.097 |
| GGACAGCAAUAUUACGAAGU | -1.34 ± 0.14 | -0.422 ± 0.14 |
| GGACAGCAAUAUUACGAAUU | -0.588 ± 0.076 | 0.11 ± 0.11 |
| GGACAGCAAUAUUACGACCG | -0.447 ± 0.16 | -0.054 ± 0.27 |
| GGACAGCAAUAUUACGAGGU | -3.35 ± 0.21 | -2.12 ± 0.14 |
| GGACAGCAAUAUUACGAUAU | -1.67 ± 0.08 | -0.201 ± 0.086 |
| GGACAGCAAUAUUACGAUGA | -1.08 ± 0.15 | -1.65 ± 0.14 |
| GGACAGCAAUAUUACGAUGU | -2.12 ± 0.055 | -0.961 ± 0.057 |
| GGACAGCAAUAUUACGAUUA | -0.666 ± 0.13 | -0.225 ± 0.12 |
| GGACAGCAAUAUUACGCGCA | -0.346 ± 0.061 | 0.497 ± 0.09 |
| GGACAGCAAUAUUACGCGCU | -1.92 ± 0.22 | -1.36 ± 0.34 |
| GGACAGCAAUAUUACGCGUC | -2.69 ± 0.22 | -2.78 ± 0.48 |
| GGACAGCAAUAUUACGCUCA | -0.215 ± 0.12 | -0.136 ± 0.15 |
| GGACAGCAAUAUUACGCUGG | -2.75 ± 0.28 | -2 ± 0.34 |
| GGACAGCAAUAUUACGGAAA | -2.04 ± 0.15 | -1.23 ± 0.14 |
| GGACAGCAAUAUUACGGAUC | -1.3 ± 0.11 | 0.26 ± 0.13 |

| Sequence | self-splicing fitness (ln) (30 °C) | self-splicing fitness (ln) (37 °C) |
| --- | --- | --- |
| GGACAGCAAUAUUACGGAUU | -1.33 ± 0.066 | 0.0211 ± 0.089 |
| GGACAGCAAUAUUACGGCAG | -3.87 ± 0.14 | -2.45 ± 0.1 |
| GGACAGCAAUAUUACGGCCC | -1.7 ± 0.46 |  |
| GGACAGCAAUAUUACGGCGA | -0.0139 ± 0.1 | -0.0325 ± 0.11 |
| GGACAGCAAUAUUACGGCGU | -0.74 ± 0.097 | -0.627 ± 0.11 |
| GGACAGCAAUAUUACGGCUU | -0.36 ± 0.11 | 0.07 ± 0.11 |
| GGACAGCAAUAUUACGGGGC | -1.63 ± 0.092 | -1.72 ± 0.13 |
| GGACAGCAAUAUUACGGGUU | -3.03 ± 0.11 | -2.46 ± 0.21 |
| GGACAGCAAUAUUACGGUAC | -0.625 ± 0.11 | -0.234 ± 0.13 |
| GGACAGCAAUAUUACGUACG | -0.876 ± 0.12 | 0.399 ± 0.18 |
| GGACAGCAAUAUUACGUCCU | -4.07 ± 0.22 | -2.66 ± 0.33 |
| GGACAGCAAUAUUACGUGUA | -0.376 ± 0.078 | -0.304 ± 0.085 |
| GGACAGCAAUAUUACGUUAG | -1.24 ± 0.066 | -0.49 ± 0.085 |
| GGACAGCAAUAUUACGUUGU | -3.63 ± 0.14 | -3.51 ± 0.18 |
| GGAGAGCAAUAUUACGAAUG | -3.28 ± 0.28 | -2.71 ± 0.41 |
| GGAGAGCAAUAUUACGACCA | -2.28 ± 0.21 | -1.92 ± 0.27 |
| GGAGAGCAAUAUUACGAUAC | -2.61 ± 0.35 | -2.47 ± 0.31 |
| GGAGAGCAAUAUUACGAUAU | -3.43 ± 0.24 | -0.657 ± 0.16 |
| GGAGAGCAAUAUUACGCACA |  | -0.604 ± 0.3 |
| GGAGAGCAAUAUUACGCCUU | -2.58 ± 0.35 |  |
| GGAGAGCAAUAUUACGCGCG | -2.27 ± 0.11 | -1.26 ± 0.13 |
| GGAGAGCAAUAUUACGGACU | -1.52 ± 0.13 | -0.526 ± 0.17 |
| GGAGAGCAAUAUUACGGCGA | -2.22 ± 0.27 | -1.69 ± 0.28 |
| GGAGAGCAAUAUUACGGUUC | -1.36 ± 0.38 |  |
| GGAGAGCAAUAUUACGUGUC | -3.21 ± 0.26 | -1.46 ± 0.24 |

| Sequence | self-splicing fitness (ln) (30 °C) | self-splicing fitness (ln) (37 °C) |
| --- | --- | --- |
| GGAGAGCAAUAUUACGUUUC | -3.17 ± 0.34 |  |
| GGAUAGCAAUAUUACGAGGG | -3.29 ± 0.28 | -2.33 ± 0.27 |
| GGAUAGCAAUAUUACGAUCU | -1.25 ± 0.4 | -2.24 ± 0.43 |
| GGAUAGCAAUAUUACGAUUA | -0.674 ± 0.17 | 0.409 ± 0.15 |
| GGAUAGCAAUAUUACGCAAA | -2.14 ± 0.29 |  |
| GGAUAGCAAUAUUACGCACU | -2.36 ± 0.15 | -1.05 ± 0.15 |
| GGAUAGCAAUAUUACGCAGU | -2.7 ± 0.18 | -1 ± 0.12 |
| GGAUAGCAAUAUUACGCCAA | -2.37 ± 0.41 | -1.01 ± 0.25 |
| GGAUAGCAAUAUUACGCUUU | -2.1 ± 0.16 | -2.16 ± 0.21 |
| GGAUAGCAAUAUUACGGACU | -0.129 ± 0.14 | -0.134 ± 0.19 |
| GGAUAGCAAUAUUACGGCCU | -2.24 ± 0.29 | -0.0501 ± 0.17 |
| GGAUAGCAAUAUUACGGCGA | -0.101 ± 0.15 | -0.302 ± 0.12 |
| GGAUAGCAAUAUUACGGCGG | -1.95 ± 0.14 | -0.444 ± 0.13 |
| GGAUAGCAAUAUUACGGGGA | -3.41 ± 0.29 | -3.52 ± 0.42 |
| GGAUAGCAAUAUUACGGGGG | -2.14 ± 0.19 | -1.8 ± 0.35 |
| GGAUAGCAAUAUUACGGUAA | -2 ± 0.14 | -1.45 ± 0.12 |
| GGAUAGCAAUAUUACGGUCU | -3.86 ± 0.4 | -1.99 ± 0.18 |
| GGAUAGCAAUAUUACGUAAA | -2.12 ± 0.17 | -1.42 ± 0.2 |
| GGAUAGCAAUAUUACGUUUG | -2.95 ± 0.2 | -1.87 ± 0.21 |
| GGCAAGCAAUAUUACGAAUC | -0.875 ± 0.17 | -0.687 ± 0.26 |
| GGCAAGCAAUAUUACGACCG | -0.371 ± 0.11 | -0.482 ± 0.15 |
| GGCAAGCAAUAUUACGACUC | -0.319 ± 0.15 | 0.265 ± 0.17 |
| GGCAAGCAAUAUUACGAGGC | -0.0179 ± 0.3 |  |
